Reference: patent US9751932B2, “Anti-big-endothelin-1 (big-ET-1) antibodies and uses thereof” (Regeneron Pharmaceuticals, Inc., priority 2012, dated 2017)
Entries after “also recorded” stand apart in the source; their conditions may differ.

What was measured:
[1] = target: T1, mouse big-ET-1 (SEQ ID NO:437) (Mus musculus, UniProt P22387); assay: Surface plasmon resonance (Biacore) binding, mAb capture format, 37° C.
T1 sequence (P22387 53-91 limits assumed): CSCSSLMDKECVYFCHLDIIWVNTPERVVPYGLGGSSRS
Protocol: (§1) Measurements were conducted on a T200 Biacore instrument (Biacore Life Sciences division of GE Healthcare, Piscataway, N.J.). […] Different concentrations of small-ET-1 (SEQ ID NO:435), human big-ET-1 (SEQ ID NO:434) or mouse big-ET-1 (SEQ ID NO:437) were injected over the anti-big-ET-1 captured surfaces at a flow rate of 100 μl/min. Peptide binding was monitored for 3 min while dissociation of mAb-bound peptide was monitored for 4 min in HBST running buffer (0.01 M HEPES pH 7.4, 0.15 M NaCl, 3 mM EDTA, 0.005% v/v Surfactant P20). Kinetic association (ka) and dissociation (kd) rate constants were determined by processing and fitting the data to a 1:1 binding model using Scrubber 2.0 curve fitting software.

[2] = target: T2, human big-ET-1 (SEQ ID NO:434) (Homo sapiens, UniProt P05305); assay: as above; conditions: for ka / kd: analyte human big-ET-1, mAb capture
T2 sequence (P05305 53-90 limits assumed): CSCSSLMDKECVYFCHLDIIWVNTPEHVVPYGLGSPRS
Protocol: as §1

[3] = test system: C57BL/6 mice challenged with human big-ET-1 peptide; assay: Mean arterial pressure changes after human big-ET-1 challenge in catheterized mice; assay type: in vivo, mouse
Protocol: The purpose of this Example was to evaluate the ability of an exemplary anti-big-ET-1 antibody (H2M6490N) to block […] increases in arterial pressure. Mice that had been previously infused with either blocking anti-big-ET-1 antibody or isotype control were challenged with big-ET-1 peptide. Changes in arterial pressure stemming from either big-ET-1 endogenous conversion to small-ET-1, or having its conversion blocked by circulating anti-big-ET-1 antibody, were measured. To facilitate real time measurements of arterial pressure during these experiments, mice were catheterized using standard protocols.
Briefly, naïve Taconic C57BL/6 mice (8-10 weeks of age) were anesthetized with isoflurane and the skin overlying the carotid artery and jugular vein was cut. Both the right jugular vein and left carotid artery were isolated, taking care not to damage the Vagus nerve or other blood vessels. Using standard techniques, the jugular vein was retracted and a 32-gauge needle (bent at a 90° angle) was used to puncture the vein for insertion of a saline-filled jugular vein catheter. The left carotid artery was then isolated and a Millar Micro-Tip® catheter was introduced using standard protocols. During all procedures a temperature probe was used to monitor animal body temperature, which was kept around 36.5° C. using a Gaymar heated water circulating pad. The above procedures allowed real-time pressure measurements (systolic pressure, diastolic pressure, mean arterial pressure, and body temperature) to be recorded during all big ET-1 challenge experiments.
In the first study, 150 μg (˜2 mg/kg; 1×10^−9 Moles) of H2M6490N or isotype control mAb was injected i.v. using the jugular vein port followed by a bolus of saline to flush the catheter. This caused a slight and transient drop in pressure that returned to baseline and established the T=0 for the experiment.
In a second experiment, the same experimental protocol was utilized except that H2M6490N (˜2 mg/kg; 1×10^−9 Moles) was injected subcutaneously (s.c.) into the mice 24 hrs before challenge with human big-ET-1 peptide.

[4] = target: T2, human big-ET-1 (SEQ ID NO:434); assay: MALDI-TOF detection of C-term peptide product from cleavage of big-ET-1 by mouse ECE-1; assay type: biochemical; set-up: purchased R&D Systems (mouse ECE-1 only)
Text: Matrix Assisted Laser Desorption Ionization Time of Flight (MALDI-TOF) mass spectrometry was used to determine if selected anti-big-ET-1 antibodies could block the conversion of human big-ET-1 (SEQ ID NO:434) or mouse big-ET-1 (SEQ ID NO:437) into its respective peptides in the presence of mouse endothelin converting enzyme 1 (ECE-1). Human big-ET-1 is specifically cleaved by mECE-1 at Trp-21/Val-22 forming both biologically active small-ET-1 (SEQ ID NO:435; MH^+ 2474) and a non-active C-term product (amino acids 22-38 of SEQ ID NO:434; MH^+ 1809). Mouse big-ET-1 is cleaved at Trp-21/VaI-22 into small-ET-1 (SEQ ID NO:435; MH^+ 2474) and its non-active C-term product (amino acids 22-39 of SEQ ID NO:437; MH^+ 1875). The appearance or absence of these masses, in the presence of antibody, can be monitored by MALDI-TOF. In the example below, the presence or absence of the C-term products served as an indicator for big-ET-1 cleavage since these peptides ionize more efficiently than small-ET-1 (SEQ ID NO:435; MH^+ 2474), thereby yielding a more sensitive readout.
Briefly, human or mouse big-ET-1 (0.5 μM) was mixed with antibody (2.5 μM), in phosphate buffered saline (PBS), at a 1:5 molar ratio (big-ET-1:mAb). After a 1-hr incubation (25° C.), mouse ECE-1 (R&D Systems) was added at 40 nM and the solution was placed at 37° C. Aliquots for mass spectrometry analysis were taken at 0, 15, 30 and 60 minutes. Each aliquot was desalted via C18 Ziptip (Millipore) and analyzed in reflextron-positive mode using a Bruker Ultraflextreme MALDI-TOF instrument (Bruker Daltonics).

[5] = target: T3, human big-ET-1 (cleavage by human ECE-1) (Homo sapiens, UniProt P05305); assay: NFAT luciferase reporter assay (293/ETaR/NFAT-Luc cells) for blocking of ECE-1-mediated cleavage; assay type: cell-based; conditions: read-out: Blocking IC50 10 nM hBig-ET-1 + 3 nM hECE1; human Fc mAbs (Table 5)
T3 sequence (P05305 53-90 limits assumed): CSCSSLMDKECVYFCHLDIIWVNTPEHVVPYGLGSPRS
Protocol: (§2) Briefly, HEK293 cell lines were generated to stably express full-length human endothelin receptor type A (ETaR) along with a luciferase reporter element [NFAT (4×)-luciferase]. A single clone was isolated and maintained in 10% FBS, DMEM, NEAA, Pen/Strep, and 500 μg/ml G418 and 100 μg/ml hygromycin B.
(§3) Both human and mouse big-ET-1 blocking experiments were allowed to incubate (37° C.; 5% CO2) overnight. The next morning these solutions were added to the 293/ETaR/NFAT-Luc cells (20,000 cells/well) and luciferase activity was detected after 5.5 hrs (37° C.; 5% CO2) using a Victor X plate reader (Perkin Elmer). The amount of luciferase activity observed under these conditions is a proportional representation of the amount of small-ET-1 generated from cleavage of either mouse or human big-ET-1.

[6] = target: T4, mouse big-ET-1 (cleavage by mouse ECE-1) (Mus musculus, UniProt P22387); assay: as above; assay type: cell-based; conditions: read-out: Blocking IC50 20 nM mBig-ET-1 + 5 nM mECE1; human Fc mAbs (Table 5)
T4 sequence (P22387 53-91): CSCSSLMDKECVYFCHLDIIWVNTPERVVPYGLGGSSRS
Protocol: as §2, §3

B1: H2M6490N: anti-big-ET-1 antibody, mouse IgG2 Fc; HCVR/LCVR SEQ ID NO: 18/26 (antibody, V domains shown)
VH: EVQLLESGGGLVQPGGSLRLSCAASGFTFSSYAMTWVRQAPGKGLECISAISGSGYSTYYADSMKGRFSISRDNSKNTLYLQMNRLRAEDTAVYYCTKGGRILEWLLPFDFWGQGTLVTVSS
VL: DVVMTQSPLSLPVTLGQPASISCRSSQSLVYSDGNTYLIWFQQRPGQSPRRLIYKVSNRDSGVPDRFSGSGSGTDFTLIISRVEAEDVGLYYCMQGTHWPPTFGGGTKVEIK
modifications: mouse IgG2 Fc
binding to mouse big-ET-1 (in words) [1]: did not show any binding
Kd ([1]; analyte mouse big-ET-1, mAb capture, KD=kd/ka): > 1000 nM
binding to human big-ET-1 (in words) [2]: high affinity binding
ka [2]: 209000 M/s
kd [2]: 0.00399 s⁻¹
Mean Pressure Change ([3]; Study 1: antibody 150 μg i.v., time 0 min, cumulative big-ET-1 0.00E+00 Moles): 0 mmHg
Mean Pressure Change ([3]; Study 1: antibody i.v., time 30 min, cumulative big-ET-1 3.85E−11 Moles, mAb:big-ET-1 26.0): −0.6 ± 2.6 mmHg
Mean Pressure Change ([3]; Study 1: antibody i.v., time 45 min, cumulative big-ET-1 1.16E−10 Moles, mAb:big-ET-1 8.7): −1.0 ± 3.5 mmHg
Mean Pressure Change ([3]; Study 1: antibody i.v., time 60 min, cumulative big-ET-1 2.32E−10 Moles, mAb:big-ET-1 4.3): 4.0 ± 4.7 mmHg
Mean Pressure Change ([3]; Study 1: antibody i.v., time 75 min, cumulative big-ET-1 4.66E−10 Moles, mAb:big-ET-1 2.1): 18.2 ± 9.6 mmHg
Mean Pressure Change ([3]; Study 1: antibody i.v., time 90 min, cumulative big-ET-1 8.16E−10 Moles, mAb:big-ET-1 1.2): 32.5 ± 20.8 mmHg
Mean Pressure Change ([3]; Study 1: antibody i.v., time 105 min, cumulative big-ET-1 1.28E−09 Moles, mAb:big-ET-1 0.8): 25.1 ± 8.3 mmHg
Mean Pressure Change ([3]; Study 1: antibody i.v., time 120 min, cumulative big-ET-1 1.87E−09 Moles, mAb:big-ET-1 0.5): −15.4 ± 8.2 mmHg
Mean Pressure Change ([3]; Study 2: antibody s.c. ~24 hr before challenge, time 0 min, cumulative big-ET-1 0.00E+00 Moles): 0 mmHg
Mean Pressure Change ([3]; Study 2: antibody s.c. ~24 hr before, time 30 min, cumulative big-ET-1 3.85E−11 Moles, ratio 26.0): 1.7 mmHg
Mean Pressure Change ([3]; Study 2: antibody s.c. ~24 hr before, time 45 min, cumulative big-ET-1 1.16E−10 Moles, ratio 8.7): 7.6 mmHg
Mean Pressure Change ([3]; Study 2: antibody s.c. ~24 hr before, time 60 min, cumulative big-ET-1 2.32E−10 Moles, ratio 4.3): 14.9 mmHg
Mean Pressure Change ([3]; Study 2: antibody s.c. ~24 hr before, time 75 min, cumulative big-ET-1 4.66E−10 Moles, ratio 2.1): 52.1 mmHg
Mean Pressure Change ([3]; Study 2: antibody s.c. ~24 hr before, time 90 min, cumulative big-ET-1 8.16E−10 Moles, ratio 1.2): 45.8 mmHg
Mean Pressure Change ([3]; Study 2: antibody s.c. ~24 hr before, time 105 min, cumulative big-ET-1 1.28E−09 Moles, ratio 0.8): 12.0 mmHg
arterial pressure response to human big-ET-1 challenge (in words) ([3]; ~2 mg/kg antibody, 30 min (i.v.) or 24 hr (s.c.) before challenge): maintained baseline mean arterial pressure until the amount of human big-ET-1 peptide approached the molar equivalent of antibody on board; also recorded: maintained normal arterial pressures longer than those mice that were treated with isotype control antibody; also recorded: effective in inhibiting endothelin-1-mediated elevation in arterial pressure in vivo
cleavage of human big-ET-1 by mouse ECE-1 (in words) [4]: no C-term product was detected
Detection of C-term Peptide Product, 0 min ([4]; Human big-ET-1, mouse ECE-1, 0 min): −
Detection of C-term Peptide Product, 15 min ([4]; Human big-ET-1, mouse ECE-1, 15 min): −
Detection of C-term Peptide Product, 30 min ([4]; Human big-ET-1, mouse ECE-1, 30 min): −
Detection of C-term Peptide Product, 60 min ([4]; Human big-ET-1, mouse ECE-1, 60 min): −

B2: H4H6490N2: anti-big-ET-1 antibody, human IgG4 Fc; HCVR/LCVR SEQ ID NO: 402/410 (antibody, V domains shown)
VH: EVQLLESGGGLVQPGGSLRLSCAASGFTFSSYAMTWVRQAPGKGLEWISAISGSGYSTYYADSMKGRFSISRDNSKNTLYLQMNRLRAEDTAVYYCTKGGRILEWLLPFDFWGQGTLVTVSS
VL: DVVMTQSPLSLPVTLGQPASISCRSSQSLVYSDGNTYLIWFQQRPGQSPRRLIYKVSNRDSGVPDRFSGSGSGTDFTLIISRVEAEDVGLYYCMQGTHWPPTFGGGTKVEIK
modifications: human IgG4 Fc
IC50 [5]: > 100 nM
IC50 [6]: > 100 nM

B3: H4H6492N2: anti-big-ET-1 antibody, human IgG4 Fc; HCVR/LCVR SEQ ID NO: 418/426 (antibody, V domains shown)
VH: EVQLVESGGGLVKPGGSLRVSCVASGFTFSNAWMTWVRQTPGKGLEWVGRIKSRTDGGTVDYVAPVKGRFTISRDDSKNTLYLQMNSLKAEDTAVYYCRADLDYWGQGTLVTVSS
VL: DVVMTQSPLSLPVSLGQPASISCRSSQSLVHSDGITYLNWFQQRPGQSPRRLIYKISNRDSGVPDRFSGSGSGTDFTLKFSRVEAEDVGVYFCMQGTHWPYTFGQGTKLEIK
modifications: human IgG4 Fc
ka [2]: 424000 M/s
kd [2]: 0.0297 s⁻¹
IC50 [6]: > 100 nM
